test system: AncSZ; test: phosphorylation enrichment, bacterial display (enrichment ratio); higher = better substrate or ligand; peptides without Tyr show the background
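Note: 11-residue human phosphosite peptides and single-mutation variants displayed on the E. coli surface, counted by deep sequencing, each peptide's frequency after selection divided by its frequency in the unselected input library; frequency after pTyr selection over input frequency; kinase dosed for 20-30% of maximal phosphorylation in three min.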

Sequence | phosphorylation enrichment
SGSIHYSRVPR [GLB1_Y57] | 0.629
KDHLDYKYQPR [SOX9_Y172_P170L] | 0.585
VVLVSYVPFSQ [SH2B1_Y624_S627F] | 1.29
QYKDKYLAKHN [CASK_Y712] | 0.401
MAFDRYVAVCA [OR52J3_Y125] | 0.845
TEDELYQLSLQ [RASGRP2_Y378] | 1.9
EKQVAYCPSGR [ROS1_Y2323_K2328R] | 2.05
ASNNPYFRDQA [RPGRIP1_Y846] | 0.605
GVFSRHFTTFD [CLCA1_Y661_Y661H_YF] | 1.31
DLDFTYIYPNI [PTEN_Y27_L25F] | 4.17
GASRRYGSGVS [NEU1_Y242_W240R] | 0.582
RRVLVYRGRGA [QDPR_Y16_G17R] | 0.963
NTGNYYDLYGG [PTPN11_Y63_D61N] | 1.73
VNKIFYPDFIV [LIG3_Y768_YF] | 1
GKSFTYAAFHA [KCNT1_Y563] | 0.849
QTEAEYRFIFM [PTPN11_Y511_Q510E_YF] | 1.29
IGSHAYGDQYR [IDH1_Y135_R132S] | 0.583
GGYTCYSDGKK [PROS1_Y266_C267S] | 1.13
INQGPYENHSV [ATP6V1B1_Y462_R465H] | 0.646
KEKLCYVALDF [ACTA1_Y220] | 1.26
KDQPDYKYQPR [SOX9_Y172_H169Q] | 0.705
FLENFYDLKKD [MMP3_Y42_YF] | 1.24
SSPQPYLVPFL [TAF4_Y652] | 0.857
AVIADYMFWLG [SPATA16_Y290_M286V] | 2.25
SISLRYEGRVF [ABL1_Y167_YF] | 1.25
ENRKYYKDLKE [PURA_Y156_M157K] | 0.55
DPFHVYIKNHV [KCNE3_Y95_R99H_YF] | 1.22
SVKVFYKKCWS [EPHA7_Y202_YF] | 1.14
MSRDIYSTDFF [NTRK1_Y676_YF] | 0.852

biological target: EPHB1 (UniProt P54762); test: as above
Sequence (P54762 whole entry, looked up): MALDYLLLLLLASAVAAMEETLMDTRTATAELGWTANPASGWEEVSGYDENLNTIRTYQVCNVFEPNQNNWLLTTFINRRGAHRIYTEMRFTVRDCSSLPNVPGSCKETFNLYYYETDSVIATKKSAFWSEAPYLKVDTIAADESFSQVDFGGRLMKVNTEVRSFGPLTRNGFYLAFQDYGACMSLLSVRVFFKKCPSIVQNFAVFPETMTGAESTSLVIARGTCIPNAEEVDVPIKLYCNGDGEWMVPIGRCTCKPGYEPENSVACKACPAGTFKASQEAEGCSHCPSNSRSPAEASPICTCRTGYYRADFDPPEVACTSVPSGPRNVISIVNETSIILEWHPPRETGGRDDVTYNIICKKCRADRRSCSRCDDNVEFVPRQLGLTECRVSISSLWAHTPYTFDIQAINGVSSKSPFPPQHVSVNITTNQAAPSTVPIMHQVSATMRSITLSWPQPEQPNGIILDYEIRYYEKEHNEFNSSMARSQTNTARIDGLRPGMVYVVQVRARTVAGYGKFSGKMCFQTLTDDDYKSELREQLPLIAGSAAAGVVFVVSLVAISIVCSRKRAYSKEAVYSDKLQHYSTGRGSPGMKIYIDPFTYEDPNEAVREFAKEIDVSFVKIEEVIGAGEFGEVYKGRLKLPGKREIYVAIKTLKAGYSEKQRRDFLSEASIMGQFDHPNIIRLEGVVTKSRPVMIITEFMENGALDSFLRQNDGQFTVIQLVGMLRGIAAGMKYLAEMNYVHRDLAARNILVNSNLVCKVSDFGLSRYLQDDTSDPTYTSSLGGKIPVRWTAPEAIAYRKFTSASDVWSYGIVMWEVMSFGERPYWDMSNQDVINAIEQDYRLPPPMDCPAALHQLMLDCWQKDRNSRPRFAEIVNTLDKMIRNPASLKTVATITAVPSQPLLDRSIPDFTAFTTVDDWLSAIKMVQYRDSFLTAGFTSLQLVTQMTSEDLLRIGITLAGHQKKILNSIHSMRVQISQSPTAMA

Sequence | phosphorylation enrichment
SGSIHYSRVPR [GLB1_Y57] | 0.542
KDHLDYKYQPR [SOX9_Y172_P170L] | 0.419
VVLVSYVPFSQ [SH2B1_Y624_S627F] | 0.716
QYKDKYLAKHN [CASK_Y712] | 0.501
MAFDRYVAVCA [OR52J3_Y125] | 0.649
TEDELYQLSLQ [RASGRP2_Y378] | 0.717
EKQVAYCPSGR [ROS1_Y2323_K2328R] | 0.511
ASNNPYFRDQA [RPGRIP1_Y846] | 0.396
GVFSRHFTTFD [CLCA1_Y661_Y661H_YF] | 0.953
DLDFTYIYPNI [PTEN_Y27_L25F] | 0.83
GASRRYGSGVS [NEU1_Y242_W240R] | 0.429
RRVLVYRGRGA [QDPR_Y16_G17R] | 0.818
NTGNYYDLYGG [PTPN11_Y63_D61N] | 18.3
VNKIFYPDFIV [LIG3_Y768_YF] | 0.465
GKSFTYAAFHA [KCNT1_Y563] | 0.603
QTEAEYRFIFM [PTPN11_Y511_Q510E_YF] | 0.59
IGSHAYGDQYR [IDH1_Y135_R132S] | 0.497
GGYTCYSDGKK [PROS1_Y266_C267S] | 0.677
INQGPYENHSV [ATP6V1B1_Y462_R465H] | 0.436
KEKLCYVALDF [ACTA1_Y220] | 0.737
KDQPDYKYQPR [SOX9_Y172_H169Q] | 0.437
FLENFYDLKKD [MMP3_Y42_YF] | 0.453
SSPQPYLVPFL [TAF4_Y652] | 0.415
AVIADYMFWLG [SPATA16_Y290_M286V] | 6.08
SISLRYEGRVF [ABL1_Y167_YF] | 0.636
ENRKYYKDLKE [PURA_Y156_M157K] | 0.34
DPFHVYIKNHV [KCNE3_Y95_R99H_YF] | 0.671
SVKVFYKKCWS [EPHA7_Y202_YF] | 0.621
MSRDIYSTDFF [NTRK1_Y676_YF] | 5.71

biological target: EPHB2 (UniProt P29323); test: as above
Sequence (P29323 whole entry, looked up): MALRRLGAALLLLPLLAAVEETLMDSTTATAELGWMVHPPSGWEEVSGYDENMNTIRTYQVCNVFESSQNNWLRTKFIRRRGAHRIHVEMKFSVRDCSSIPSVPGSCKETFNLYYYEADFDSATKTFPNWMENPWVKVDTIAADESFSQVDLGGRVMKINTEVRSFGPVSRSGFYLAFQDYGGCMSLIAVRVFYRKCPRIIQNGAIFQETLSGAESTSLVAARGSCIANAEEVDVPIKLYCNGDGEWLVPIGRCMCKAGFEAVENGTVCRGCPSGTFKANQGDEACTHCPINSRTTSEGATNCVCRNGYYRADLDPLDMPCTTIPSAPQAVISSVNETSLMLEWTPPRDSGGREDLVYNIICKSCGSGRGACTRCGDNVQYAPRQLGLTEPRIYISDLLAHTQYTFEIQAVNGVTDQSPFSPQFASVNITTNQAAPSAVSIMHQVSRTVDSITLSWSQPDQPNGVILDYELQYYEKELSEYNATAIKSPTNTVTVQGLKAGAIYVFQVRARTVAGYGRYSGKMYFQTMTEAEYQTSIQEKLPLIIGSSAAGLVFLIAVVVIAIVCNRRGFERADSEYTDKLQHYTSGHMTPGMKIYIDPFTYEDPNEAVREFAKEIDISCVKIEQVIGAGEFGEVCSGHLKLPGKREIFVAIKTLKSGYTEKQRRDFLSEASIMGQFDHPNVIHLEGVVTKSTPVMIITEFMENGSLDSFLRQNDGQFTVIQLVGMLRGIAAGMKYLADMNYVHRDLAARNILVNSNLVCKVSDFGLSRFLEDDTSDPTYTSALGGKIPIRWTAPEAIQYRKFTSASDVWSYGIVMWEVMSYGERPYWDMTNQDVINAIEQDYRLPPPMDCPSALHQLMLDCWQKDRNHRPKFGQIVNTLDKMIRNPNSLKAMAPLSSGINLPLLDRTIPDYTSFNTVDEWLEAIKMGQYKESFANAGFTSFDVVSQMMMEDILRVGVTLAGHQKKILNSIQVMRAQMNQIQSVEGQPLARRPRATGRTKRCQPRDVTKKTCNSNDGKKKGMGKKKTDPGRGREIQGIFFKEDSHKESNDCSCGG

Sequence | phosphorylation enrichment
SGSIHYSRVPR [GLB1_Y57] | 0.436
KDHLDYKYQPR [SOX9_Y172_P170L] | 0.448
VVLVSYVPFSQ [SH2B1_Y624_S627F] | 0.702
QYKDKYLAKHN [CASK_Y712] | 0.402
MAFDRYVAVCA [OR52J3_Y125] | 0.7
TEDELYQLSLQ [RASGRP2_Y378] | 0.677
EKQVAYCPSGR [ROS1_Y2323_K2328R] | 0.615
ASNNPYFRDQA [RPGRIP1_Y846] | 0.357
GVFSRHFTTFD [CLCA1_Y661_Y661H_YF] | 1.1
DLDFTYIYPNI [PTEN_Y27_L25F] | 0.945
GASRRYGSGVS [NEU1_Y242_W240R] | 0.48
RRVLVYRGRGA [QDPR_Y16_G17R] | 0.714
NTGNYYDLYGG [PTPN11_Y63_D61N] | 20.1
VNKIFYPDFIV [LIG3_Y768_YF] | 0.928
GKSFTYAAFHA [KCNT1_Y563] | 0.613
QTEAEYRFIFM [PTPN11_Y511_Q510E_YF] | 0.762
IGSHAYGDQYR [IDH1_Y135_R132S] | 0.419
GGYTCYSDGKK [PROS1_Y266_C267S] | 0.561
INQGPYENHSV [ATP6V1B1_Y462_R465H] | 0.639
KEKLCYVALDF [ACTA1_Y220] | 0.676
KDQPDYKYQPR [SOX9_Y172_H169Q] | 0.415
FLENFYDLKKD [MMP3_Y42_YF] | 0.563
SSPQPYLVPFL [TAF4_Y652] | 0.867
AVIADYMFWLG [SPATA16_Y290_M286V] | 12.4
SISLRYEGRVF [ABL1_Y167_YF] | 0.703
ENRKYYKDLKE [PURA_Y156_M157K] | 0.298
DPFHVYIKNHV [KCNE3_Y95_R99H_YF] | 0.735
SVKVFYKKCWS [EPHA7_Y202_YF] | 0.647
MSRDIYSTDFF [NTRK1_Y676_YF] | 6.8

biological target: FGFR1 (UniProt P11362); test: as above
Sequence (P11362 whole entry, looked up): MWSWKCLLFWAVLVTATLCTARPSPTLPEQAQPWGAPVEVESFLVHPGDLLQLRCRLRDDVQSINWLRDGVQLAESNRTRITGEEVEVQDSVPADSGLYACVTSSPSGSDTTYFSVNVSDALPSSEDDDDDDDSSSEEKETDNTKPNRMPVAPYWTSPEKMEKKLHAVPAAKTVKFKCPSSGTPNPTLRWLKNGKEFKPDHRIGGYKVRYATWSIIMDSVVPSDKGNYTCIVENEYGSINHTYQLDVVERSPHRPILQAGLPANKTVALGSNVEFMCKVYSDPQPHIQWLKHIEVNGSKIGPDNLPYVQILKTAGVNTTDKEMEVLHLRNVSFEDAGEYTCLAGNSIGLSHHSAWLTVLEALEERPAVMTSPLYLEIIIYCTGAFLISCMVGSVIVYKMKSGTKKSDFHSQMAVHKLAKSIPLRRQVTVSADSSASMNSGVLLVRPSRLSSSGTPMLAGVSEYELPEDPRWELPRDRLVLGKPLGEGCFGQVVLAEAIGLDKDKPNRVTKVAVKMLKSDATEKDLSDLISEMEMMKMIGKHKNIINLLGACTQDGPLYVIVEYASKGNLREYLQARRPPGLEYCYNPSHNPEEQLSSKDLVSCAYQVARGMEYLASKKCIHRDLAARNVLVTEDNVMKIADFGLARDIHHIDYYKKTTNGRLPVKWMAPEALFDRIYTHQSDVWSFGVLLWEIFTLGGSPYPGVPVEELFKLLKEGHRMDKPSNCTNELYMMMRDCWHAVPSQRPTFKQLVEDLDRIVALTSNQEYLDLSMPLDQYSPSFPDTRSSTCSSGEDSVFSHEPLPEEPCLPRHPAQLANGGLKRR

Sequence | phosphorylation enrichment
SGSIHYSRVPR [GLB1_Y57] | 0.772
KDHLDYKYQPR [SOX9_Y172_P170L] | 0.462
VVLVSYVPFSQ [SH2B1_Y624_S627F] | 0.526
QYKDKYLAKHN [CASK_Y712] | 0.526
MAFDRYVAVCA [OR52J3_Y125] | 0.519
TEDELYQLSLQ [RASGRP2_Y378] | 0.476
EKQVAYCPSGR [ROS1_Y2323_K2328R] | 0.531
ASNNPYFRDQA [RPGRIP1_Y846] | 0.443
GVFSRHFTTFD [CLCA1_Y661_Y661H_YF] | 0.644
DLDFTYIYPNI [PTEN_Y27_L25F] | 4.18
GASRRYGSGVS [NEU1_Y242_W240R] | 0.393
RRVLVYRGRGA [QDPR_Y16_G17R] | 0.758
NTGNYYDLYGG [PTPN11_Y63_D61N] | 15.7
VNKIFYPDFIV [LIG3_Y768_YF] | 0.49
GKSFTYAAFHA [KCNT1_Y563] | 0.51
QTEAEYRFIFM [PTPN11_Y511_Q510E_YF] | 1.46
IGSHAYGDQYR [IDH1_Y135_R132S] | 0.45
GGYTCYSDGKK [PROS1_Y266_C267S] | 0.592
INQGPYENHSV [ATP6V1B1_Y462_R465H] | 0.441
KEKLCYVALDF [ACTA1_Y220] | 2.4
KDQPDYKYQPR [SOX9_Y172_H169Q] | 0.431
FLENFYDLKKD [MMP3_Y42_YF] | 0.452
SSPQPYLVPFL [TAF4_Y652] | 0.522
AVIADYMFWLG [SPATA16_Y290_M286V] | 13.1
SISLRYEGRVF [ABL1_Y167_YF] | 0.524
ENRKYYKDLKE [PURA_Y156_M157K] | 0.359
DPFHVYIKNHV [KCNE3_Y95_R99H_YF] | 0.469
SVKVFYKKCWS [EPHA7_Y202_YF] | 0.507
MSRDIYSTDFF [NTRK1_Y676_YF] | 2.6

Reference: the supplement of paper PMC10065799, “High-throughput profiling of sequence recognition by tyrosine kinases and SH2 domains using bacterial peptide display” (eLife, 2023)
